# Source: patent US20230322924A1
# pKd: −log10 of the molar value.
# Experiments:
# [1] = biological target: human CD3 on human T cells (human) (UniProt P07766); assay: flow cytometry competition on purified human T cells; competitor 2 ug/mL AF488-labelled SP34-2
# [2] = biological target: human CD3 on human T cells (human) (UniProt P07766); assay: saturation binding on human pan T cells, flow cytometry (KdT)
# [3] = biological target: Human CD33 ECD-HSA (human); assay: SPRi off-rate screen (IBIS MX96)
# [4] = biological target: Human CD33-V-HSA (human); assay: SPRi off-rate screen (IBIS MX96)
# Chain of human CD3 on human T cells (human) (P07766 23-207 limits assumed): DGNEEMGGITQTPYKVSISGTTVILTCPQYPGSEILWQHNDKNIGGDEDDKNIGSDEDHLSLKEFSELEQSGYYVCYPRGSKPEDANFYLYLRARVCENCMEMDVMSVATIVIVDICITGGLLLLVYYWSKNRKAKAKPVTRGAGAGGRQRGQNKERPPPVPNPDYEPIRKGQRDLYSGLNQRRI
IC50 (read off the curve) [1] [µg/mL],pKd [2],koff [3] [s⁻¹],koff [4] [s⁻¹],Substance
1,8.25,,,"SP34-2, commercial mouse anti-human CD3 antibody"
,,0.00237,0.0378,WM53 (antibody)
